According to publication PMC10344873 (2023):

B1: wild type p16-NLuc (mouse p16 tagged with NanoLuc luciferase) [mouse] / 3×Flag-tagged wild type CDK6 [mouse (by the printed Gene ID 12571; not stated in words for CDK6)] (parent complex)
chain 1: MESAADRLARAAAQGRVHDVRALLEAGVSPNAPNSFGRTPIQVMMMGNVHVAALLLNYGADSNCEDPTTFSRPVHDAAREGFLDTLVVLHGSGARLDVRDAWGRLPLDLAQERGHQDIVRYLRSAGCSLCSAGWSLCTAGNVAQTDGHSFSSSTPRALELRGQSQEQS
chain 2: MEKDSLSRADQQYECVAEIGEGAYGKVFKARDLKNGGRFVALKRVRVQTSEEGMPLSTIREVAVLRHLETFEHPNVVRLFDVCTVSRTDRETKLTLVFEHVDQDLTTYLDKVPEPGVPTETIKDMMFQLLRGLDFLHSHRVVHRDLKPQNILVTSSGQIKLADFGLARIYSFQMALTSVVVTLWYRAPEVLLQSSYATPVDLWSVGCIFAEMFRRKPLFRGSSDVDQLGKILDIIGLPGEEDWPRDVALPRQAFHSKSAQPIEKFVTDIDELGKDLLLKCLTFNPAKRISAYGALNHPYFQDLERYKDNLNSHLPSNQSTSELNTA

Variants of: B1
Experiment: LUMIER assay (Flag IP, on-bead NanoLuc bioluminescence); HEK293T cells, transient expression; n = 6 independent experiments; signals normalised on input; parent: 1; read off a plot

ratio to parent	Variant
~0.08	chain 1 G47D
~0.6	chain 1 P73L
~0.18	chain 1 G15S

Variants of: B1
Experiment: as above
Remark: another data set of the same source

ratio to parent	Variant
~0.6	chain 2 D110H
~0.5	chain 2 D102N
